Results: PMC2518108

Tests used:
[1] = molecular target: human IGF-II (human); test: SPR; BIAcore T100, CM5 chip; human IGF-I (120 RU) or IGF-II (138 RU) amine-coupled; IGFBP-1s injected 60 s, 5 min dissociation; 25 C, HBS (10 mM HEPES, 150 mM NaCl, 3 uM EDTA, 0.05% TWEEN-20, pH 7.4), 30 uL/min; 1:1 model fitted globally, KD = kd/ka
[2] = molecular target: human IGF-I (human) (UniProt P05019); test: as above
human IGF-I (human), sequence (P05019 49-118): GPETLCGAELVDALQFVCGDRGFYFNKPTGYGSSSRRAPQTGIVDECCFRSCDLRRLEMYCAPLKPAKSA

human IGFBP-1, sequence (P08833 26-259): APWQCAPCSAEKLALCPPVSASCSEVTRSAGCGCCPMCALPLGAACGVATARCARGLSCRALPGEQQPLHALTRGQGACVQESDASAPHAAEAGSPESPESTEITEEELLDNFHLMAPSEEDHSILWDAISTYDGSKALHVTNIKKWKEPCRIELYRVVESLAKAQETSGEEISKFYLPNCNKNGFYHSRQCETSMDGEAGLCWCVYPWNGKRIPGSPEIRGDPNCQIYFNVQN

Row | Substance | Kd [1] [nM] | koff [1] [s⁻¹] | kon [1] [M⁻¹ s⁻¹] | Kd [2] [nM] | koff [2] [s⁻¹] | kon [2] [M⁻¹ s⁻¹]
1 | zebrafish IGFBP-1b (from UniProt A4K8J2 1-244) (natural protein) | 9.33 | 0.00926 | 993000 | – | – | –
2 | human IGFBP-1 (from UniProt P08833 26-259) (natural protein) | 8.63 | 0.000457 | 53000 | – | – | –
3 | zebrafish IGFBP-1a (natural protein) | 0.34 | 0.00029 | 867000 | 0.28 | 0.000332 | 1.18e+06
